What all share (type): cell-based, human
Assay [1] relates to PBT. In words: Mitochondrial membrane potential (rhodamine 123). The note with it: CD3 activated PBT, 50 μg/ml. The text has this:
Rhodamine 123 is a fluorescent cationic dye that accumulates in the mitochondrial matrix because of its charge and solubility in both the inner mitochondrial membrane and matrix space (22). Based on the observation that accumulation of this lipophilic dye is in proportion to ΔΨ, and that deenergizing of the mitochondria decreases rhodamine 123 fluorescence (23), the inventors measured the mitochondrial membrane potential of PBT. Cells were stimulated in the presence or absence of galectin-2 with CD3 for 24 h, harvested, washed and resuspended in 1 ml of rhodamine 123 (10 μg/ml, Sigma-Aldrich) for 30 min at 37° C. in the dark. The samples were washed twice in cold PBS and fluorescence analysis by flow cytometry using an argon ion laser with an emission filter at 530 nm was performed immediately without fixation (BD FacsCalibur). PBT without stimulation and unstained samples were used as controls.

Assay [2] concerns PBT. Briefly: Apoptosis regulator proteins by immunoblotting and flow cytometry. As to the method: (§1) For immunoblotting cells were washed in PBS, and lysed in cell lysis buffer (1% Triton-X, 0.5% NP-40, 0.1% SDS, 0.5% sodium deoxycholate, 5 mM EDTA, 50 mM and 50 mM protease- and phosphatase-inhibitor cocktail 2, 1 mM PMSF, 100 μg/ml trypsin-chymotrypsin inhibitor, 100 μg/ml chymostatin in PBS). The concentration of proteins in each lysate was measured using the Bio-Rad protein assay (Bio-Rad Laboratories, Hercules, Calif.). Equivalent amounts of protein (10 μg) were fractionated on a 10-20% Tris-glycine gel and electrotransferred to a nitrocellulose membrane (Novex, San Diego, Calif.). Membranes were blocked with 5% milk in 0.1% Tween 20-PBS (Fisher Scientific, Hanover Park, Ill.), followed by incubation for 60 m in at room temperature with the indicated primary antibody. The membranes were washed six times with 0.1% Tween 20-PBS and then incubated for 1 h with the appropriate horseradish peroxidase-conjugated secondary antibody (Santa Cruz Biotechnology), washed, and incubated with the chemiluminescent substrate (Perkin-Elmer, Carlsbad, Calif.) for 5 minutes. The membranes were then exposed to film (Amersham, Arlington Heights, Ill.).
(§2) For surface staining, cells were washed twice in ice-cold PBS and 1×10^6 cells were resuspended in flow buffer (HBSS containing 1% BSA and 0.1% sodium azide). Cells were incubated with the respective mAb at predetermined saturating concentrations or with isotype-matched nonspecific mouse mAb (DAKO) for 30 min at 4° C., washed twice with flow buffer, and incubated with FITC-conjugated goat anti-mouse IgG for 30 min at 4° C. The cells were again washed twice with flow buffer, fixed in 1% paraformaldehyde and analyzed by a single laser flow cytometer (FacsCalibur, […]), using Cell Quest software (BD Pharmingen). Cells stained with a negative control Ab were gated to contain <2% positive cells. To perform analysis of intracellular proteins, cells were washed twice with PBS, adjusted to 1×10^6 cells per sample, and fixed in 90% methanol at −20° C. After fixation, cells were washed twice with PBS and incubated with a monoclonal mouse anti-bax, Bcl-2, Rb, Cyclin A, p21, p27, or p53 antibody for 45 minutes at 4° C., followed by an incubation with a goat anti-mouse FITC-conjugated mAb (Biosource) for 45 minutes at 4° C. Thereafter cells were washed and analyzed by flow cytometry as described above. The background level of immunofluorescence was determined by incubating cells with FITC-conjugated mouse IgG (isotype control).
In general terms: A western blot detects proteins with antibodies after separation by electrophoresis.

The test system of assay [3] is T cells (PBT, LPT). In words: Adhesion assay to collagen type I and fibronectin. Here is the method: 96 well flat-bottom plates were precoated overnight at 4° C. with 12 μg/well fibronectin (Chemicon) in DPBS, 40 μg/well collagen type I (Sigma-Aldrich) in 0.1 M acetic acid, or 3% BSA (Sigma-Aldrich) in DPBS as a control and then washed three times with DPBS. Freshly isolated T cells were fluorescently-labelled with 5 μM calcein-AM (Molecular Probes, Eugene, Oreg.) for 30 min at 37° C. in 5% CO2 at 5×10^6 cells/ml in RPMI. The cells were then washed three times with RPMI containing 5% FCS. Calcein-labelled T cells were resuspended in RPMI and 5×10^5 T cells/well were added to 96-well plates containing purified ECM components or BSA for the indicated times. Saturating concentrations of integrin-blocking mAbs (predetermined by flow cytometry) were preincubated with T cells for 30 min at 37° C. before adding T cells to the wells for the adhesion assay. Nonadherent cells were removed by a standardized washing technique that was developed to minimize background binding, which includes both an orbital and a rocking motion repeated three times with RPMI. Adhesion was quantified with a multiwell fluorescent spectrophotometer (Tecan, Groedig, Austria). For each experimental group the results were expressed as the mean percentage±SD of bound T cells from triplicate wells.

Another assay deals with caspase-9. Briefly: Caspase activity by flow cytometry. Conditions: anti-CD3 activated PBT, 50 μg/ml, 24 h. Here is the method: To measure caspase activity, 5×10^5 PBT were incubated in the presence or absence of 50 μg/ml galectin-2 together with derivates of the PE-labelled affinity purified anti-caspase-3 Ab (BD Pharmingen), the carboxyfluorescein-labelled caspase-8 inhibitor FAM-LETD-fmk or caspase-9 inhibitor FAM-LEHD-fmk (both from Biocharta, Hamburg, Germany), all binding irreversibly to activated caspase-3, -8 or -9, respectively. Cells were than analyzed by flow cytometry (FACS-Calibur, BD) and the increase of caspase activity determined after proper gating in correlation to untreated cells.

Assay [4] deals with T cells (PBT, LPT). In words: Integrin accessibility on T cell surface (flow cytometry). Here is the method:
as §2

Assay [5] has as its system PBT. Briefly: Analysis of T cell cycling (DNA content, cyclin B1, cell cycle regulators). Here is the method: as §1
Flow cytometry was performed after staining for DNA content, and cyclin B1, essentially as previously described (21). Briefly, cells were washed twice with PBS, adjusted to 1×10^6 cells/sample and fixed in 90% Methanol at −20° C. After fixation, cells were washed twice with PBS, incubated for 45 min at 4° C. with a cyclin B1-FITC conjugated monoclonal antibody. After the final wash, cells were resupended in PBS and 5 μl of RNase (0.6 μg/ml, 30-60 Kunitz Units, Sigma), incubated at 37° C. for 15 min and the chilled on ice. One hundred and twenty five microliters of PI (200 μg/ml) were added prior to analysis by flow cytometry. Each analysis was performed on at least 25.000 events.

B1: galectin-2: β-galactoside binding lectin, non-covalent dimer with subunits of about 14 kDa; recombinant human or rat (SEQ ID NO:1, 2) (protein)
chain: MAGELEVKNMDMKPGSTLKITGSIADGTDGFVINLGQGTDKLNLHFNPRFSESTIVCNSLDGSNWGQEQREDHLCFSPGSEVKFTVTFESDKFKVKLPDGHELTFPNRLGHSHLSYLSVRGGFNMSSFKLKE
On to B1, for which the mitochondrial polarization potential result in the assay on PBT [1] is listed as “clear decrease in the mitochondrial polarization potential”. For the same molecule, in the assay with PBT [2] (0, 25, 50 μg/ml, 48 h), the bax protein expression result is “increases” and the bcl-2 protein expression entry is “significantly reduces”. Moreover, the cytochrome c release result in the assay on PBT [2] (data not shown) is on record as “dose-dependently increased cytochrome c release in activated, but not resting T cells”. Also, the “DNA-fragmentation factor (DFF)” value in the assay on PBT [2] (immunoblotting) is listed as “dose-dependently upregulated”. Besides, in the assay with T cells (PBT, LPT) [3] (CD3 activated PBT, without galectin 22.1±3.5%), the “cells adhering to collagen type I” value came to 15.1±5.6%. In addition, the “cells adhering to fibronectin” value in the assay with T cells (PBT, LPT) [3] (CD3 activated PBT, without galectin 26.3±5.6%) stood at 39.8±4.9%. Besides, in the assay with T cells (PBT, LPT) [3] (LPT), the attachment to fibronectin result is recorded as “increasing” and the “cell adhesion to collagen” value is listed as “inhibited”. The caspase-9 activity entry in the assay with caspase-9 is reported as “significant increase”. Besides, in the assay on T cells (PBT, LPT) [4] (CD3 activated PBT), the β4 integrin accessibility result is “neither galectin-1 nor galectin-2 changed”. In addition, in the assay on T cells (PBT, LPT) [4] (CD3 activated PBT, 50 μg/ml), the “integrin α5 accessibility” value is given as “downregulated” and the “integrin β1 accessibility” value was “downregulated”. In the assay with T cells (PBT, LPT) [4] (CD3 activated PBT, second statement), the “integrin a5 accessibility” value is recorded as “slightly upregulated”. Further, in the assay with T cells (PBT, LPT) [4] (intestinal T cells (LPT)), the “integrin β1 accessibility” value is listed as “failed to modulate”. In addition, in the assay with PBT [5] (anti-CD3 activated PBT), the “cyclin B1 levels / cell cycle progression” value is listed as “unchanged cyclin B1 levels”. The “cell cycle phase distribution” value with PBT [5] (anti-CD3 activated PBT, 25, 50, 100 μg/ml) is “comparable”. Besides, the “protein levels of cyclin D2, Rb, cyclin A, p21, p27, p53” value with PBT [5] (western blot, 72 h) is “did not alter protein levels”.

For the origin of these results see patent publication US20080113907A1, “Uses Of Galectin-2” (Charite-Universitat-Smedizin Berlin, priority 2004, published 2008).
